{"source": "patent US20130136731", "test_system": "N_EGF_TCS_SK", "data": [{"substance": "thrombin", "values": [{"measurement": "cleavage of the purified construct by thrombin (N-terminal protein sequencing)", "value": "The thrombin cleavage was indeed found to be true in case of the purified construct, after treatment with thrombin"}]}]}
